T1: ABCG2 (Homo sapiens, UniProt Q9UNQ0)
T1 construct: expressed in transfected cells
T1 sequence (Q9UNQ0 1-655): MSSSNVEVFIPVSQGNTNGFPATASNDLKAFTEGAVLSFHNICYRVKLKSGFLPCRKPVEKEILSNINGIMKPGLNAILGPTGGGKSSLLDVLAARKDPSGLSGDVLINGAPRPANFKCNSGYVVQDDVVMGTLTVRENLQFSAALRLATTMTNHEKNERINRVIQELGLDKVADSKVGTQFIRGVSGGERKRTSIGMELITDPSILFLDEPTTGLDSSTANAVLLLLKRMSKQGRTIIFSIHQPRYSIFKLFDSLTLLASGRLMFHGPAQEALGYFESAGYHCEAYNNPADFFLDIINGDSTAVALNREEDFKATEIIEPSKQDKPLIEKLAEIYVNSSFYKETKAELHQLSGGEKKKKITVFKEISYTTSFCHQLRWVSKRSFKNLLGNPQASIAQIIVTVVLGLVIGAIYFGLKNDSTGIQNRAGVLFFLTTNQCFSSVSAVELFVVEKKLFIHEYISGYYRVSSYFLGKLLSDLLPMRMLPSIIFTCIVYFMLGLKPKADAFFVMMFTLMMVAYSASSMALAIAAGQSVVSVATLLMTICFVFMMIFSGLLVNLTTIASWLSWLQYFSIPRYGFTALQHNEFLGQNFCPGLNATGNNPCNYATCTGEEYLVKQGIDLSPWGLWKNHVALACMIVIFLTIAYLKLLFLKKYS


Key:
[1] = tested on: cynomolgus ABCG2; experiment: Flow cytometry binding to 293T cells overexpressing cynomolgus ABCG2; set-up: key to Cynomolgus ABCG2 binding: binding=“+”; non-significant binding=“−”
Protocol: (§1) Cell Binding Assays. Antibody binding to cells was evaluated by flow cytometry. 293T cells stably transfected to express human or cynomolgus ABCG2 (293T_ABCG2_OX) were washed once in flow cytometry buffer (PBS+2% FBS+0.02% sodium azide), resuspended at 2×10^6 cells/mL in flow cytometry buffer, and dispensed into 96-well microtiter plates at 0.1 mL/well. Recombinant antibodies were added to cells at 5 ug/mL for initial binding confirmation, or serially diluted from 100 ug/mL in flow cytometry buffer. After incubating cells on ice for 30 min, cells were washed twice with flow cytometry buffer. Bound antibody was detected with PE-labeled F(ab′)2 fragment goat anti-human IgG (Jackson ImmunoResearch) and evaluated on an Attune NxT flow cytometer. EC50 is calculated to be the concentration of antibody that gives half maximal response.

[2] = molecular target: T1, ABCG2; experiment: Flow cytometry binding to 293T cells overexpressing human ABCG2 (293T_ABCG2_OX); set-up: key to Binding by FACS: binding=“+”; non-significant binding=“−”; conditions: 293T_ABCG2_OX cells
Protocol: as §1

[3] = molecular target: T1, ABCG2; type: cell-based
Protocol: 293T_ABCG2_OX cells were washed several times and aliquoted into 96-well plates as 50 μl aliquots/well at a cell density of 2×10e6 cells per ml in phenol red-free DMEM. Cells were mixed with 50 μl antibodies or the small molecule inhibitors of ABCG2:-fumitremorgin C (FTC), or its tetracyclic analogue K0143, with a final concentration of 1 μM. Cells were then incubated in the presence of 2.5 μM Mitoxantrone 1 h at 37° C. The cells were subsequently washed twice and finally resuspended in […] PBS. Mitoxantrone fluorescence was measured using excitation at 635 nm and emission at 647 nm. Protocols was measuring efflux blockade are found in Szabo E, et al., PLoS One. 2018 Jan. 17; 13(1):e0190629; Deeken J F, et al., Mol Pharmacol. 2009 November; 76(5):946-56).

Chain of cynomolgus ABCG2 (as listed by the source): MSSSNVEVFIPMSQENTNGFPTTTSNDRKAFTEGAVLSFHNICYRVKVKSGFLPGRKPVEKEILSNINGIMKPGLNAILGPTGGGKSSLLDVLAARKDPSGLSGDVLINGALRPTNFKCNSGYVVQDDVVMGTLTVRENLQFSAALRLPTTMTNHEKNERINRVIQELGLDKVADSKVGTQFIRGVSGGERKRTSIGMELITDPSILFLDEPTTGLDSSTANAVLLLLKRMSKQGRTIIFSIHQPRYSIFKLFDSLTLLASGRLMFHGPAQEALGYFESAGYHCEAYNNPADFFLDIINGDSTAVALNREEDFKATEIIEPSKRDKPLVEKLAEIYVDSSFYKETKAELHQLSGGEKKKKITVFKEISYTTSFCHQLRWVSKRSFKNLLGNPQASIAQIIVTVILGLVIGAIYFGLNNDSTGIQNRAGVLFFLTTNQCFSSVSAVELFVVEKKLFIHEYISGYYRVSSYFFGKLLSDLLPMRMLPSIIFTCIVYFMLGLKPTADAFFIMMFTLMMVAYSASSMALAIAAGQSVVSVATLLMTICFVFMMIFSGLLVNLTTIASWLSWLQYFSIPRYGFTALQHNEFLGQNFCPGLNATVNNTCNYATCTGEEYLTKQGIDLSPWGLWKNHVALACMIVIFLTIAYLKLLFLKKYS

Molecule | Cynomolgus ABCG2 binding [1] | Binding by FACS [2] | Block Efflux [3]
G2.247 mouse: anti-ABCG2 antibody raised in mouse (antibody, V domains shown) VH: EVRLQQSGAELVKPGASVKLSCKTSGFTFSNSYISWLKQKPRQSLEWIAWIYAGTGGTNYNQKFTGKAQLTVDTSSSTAYMQLSSLTSEDSAIYYCATYGNFLYAMDNWGQGTSVTVSS VL: DIVMTQSPASLSASVGETVTITCRASGNIHNYLAWYQQKQGKSPQLLVYNTKTLADGVPSRFSGSGSGTQYSLKINSLQPEDFGSYYCQHFWSTPWTFGGGTKLEIK | − | + | −
G2.257 mouse: anti-ABCG2 antibody raised in mouse (antibody, V domains shown) VH: EVQLQQSGPELVKPGASLKISCKTFGYSFTGYYMHWVKQSPEKSLEWIGKIVPSTGGTTYNQKFKAKATLTVDKSSFTAYMQLKSLTTEDSAVYYCAREKVYGYDVYYFDYWGQGTTLTVSS VL: DIQMTQTPSSLSASLGDRVTITCSTSQGVRSYLNWYQQKPDGSVKLLIYYTSSLHSGVPSRFSGSGSGTDYSLTISNLEPEDIATYYCQQYSKLPYTFGGGTKLELK | + | + | −
G2.252 mouse: anti-ABCG2 antibody raised in mouse (antibody, V domains shown) VH: EVQLQQSGAELVKPGASVKLSCKTSGFTFSNSYISWLKQKPRQSLEWIAWIYAGTGGTNYNQKFTGKAQLTVDTSSSTAYMQLSSLTSEDSAIYYCATYGNFLYAMDYWGQGTTLTVSS VL: EIVLTQSPASLSASVGETVTITCRASGNIHNYLAWYQQKQGKSPQLLVYNAKTLADGVPSRFSGSGSGTQYSLKINSLQPEDFGSYYCQHFWSTPWTFGGGTKLEIK | − | + | −
G2.346 rat: anti-ABCG2 antibody raised in rat (antibody, V domains shown) VH: SVQWKESGPGLVQPSQTLSLTCTVSGFSLTSNGVSWVRQPPGKGLEWIAAISSGGSTYYNSGLKSRLSISRDTSKSQVFLKMNSLQTEDTAIYFCTRAGYYGYNPIWFTYWGQGTLVTVSS VL: DVVMTQTPPTLSATIGQSVSISCRSSQSLLHGSGNTYLNWLLQRPGQPPQILIYLVSRLESRVPKRFSGSGSGTDFTLKISGVEADDLGVYYCVQSTHAPFTFGSGTKLELK | + | + | −
G2.348 rat: anti-ABCG2 antibody raised in rat (antibody, V domains shown) VH: EVQLVESGPGLMQPSQTLSLTCTVSGFSLTSNGVSWVRQPPGKGLEWIATISSGGNTNYNSALKSRLSISRDTSKSQVFLKMNSLQTEDTAIYFCTRVGYYGYNPIWFAYWGQGTLVTVSS VL: DVVMTQTPPTLSATIGHSVSISCRSSQSLFHSSGNTYLSWFLQRPGQPPQLLIYLVSRLESRVPNRFSGSGSGTDFTLKISVLEAEDLGVYYCVQTTHAPFTFGSGTKLEIK | + | + | −
G2.394 rat: anti-ABCG2 antibody raised in rat (antibody, V domains shown) VH: EVQLKESGPGLVQPSQTLSLTCTVSGFSLTDYTITWVRQPPGKGLEWIAATSVGGATHYNSPLKSRLSISGDTSKSQVFLKMNSLRTEDTAMYFCVRSGYYSTYMNWGRGTMVTVSS VL: DVVMTQTPPTFSATIGQSVSISCRSSQSLLHSSGNTFLSWLLQRPGQPPQLLIYLVSRLEFGVPNRFSGSGSGTDFTLKISGVEAEDLGVYYCVQSTHVMNTFGAGTKLEIK | + | + | −

— patent US20230212305A1, “ANTI-ABCG2 ANTIBODIES AND USES THEREOF” (Kenjockety Biotechnology, Inc., priority 2020, published 2023)
